Experimental data from patent US20100015155A1 (Eli Lilly, published 2010).

Key:
[1] = target: T1, human soluble Abeta (1-40) (human, UniProt P05067 672-711); experiment: KinExA equilibrium, ratio of KD values
T1 construct: domain: Abeta (1-40); The numbers 1-40 count on the Aβ peptide, not on the APP precursor entry; also called Human Abeta (1-40); human abeta
Procedure: (§1) KinExA analysis is used as an orthogonal approach to measure binding affinity through equilibrium binding analysis due to the slow off-rate of the antigen Fab complex. A KinExA 3000 instrument (Sapidyne Inst. Inc.) is used to measure binding kinetics. Briefly, the antigen is covalently coupled to sepharose beads and the binding of free Fab/Fab-PEG to the beads is detected on the instrument. […] After the incubation, free Fab/Fab-PEG in each equilibrated sample is determined on the KinExA 3000 according to the manufacturer's instructions. Kd values are determined by n-Curve Analysis using KinExA 3000 software.

[2] = target: T1, human soluble Abeta (1-40); experiment: KinExA equilibrium, antigen on sepharose beads, soluble Abeta (1-40) titrated, 37 C; 1A1 Fab, not PEGylated
Procedure: as §1

T1 sequence (P05067 672-711 limits assumed): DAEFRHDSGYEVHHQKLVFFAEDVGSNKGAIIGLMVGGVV

fold affinity against murine 266 Fab [1]: ~10 fold | Kd [2]: 0.019 nM
B1: 1A1-Fab (humanized antibody Fab fragment, LCVR of SEQ ID NO: 1 and HCVR of SEQ ID NO: 2) (Fab, V domains shown)
VH: EVQLVESGGGLVKPGGSLRLSCAASGYTFSRYSMSWVRQAPGKGLEWVGQINIRGCNTYYPDTVKGRFTISRDDSKNTLYLQMNSLKTEDTAVYYCTTGDFWGQGTLVTVSS
VL: DIVMTQTPLSLSVTPGQPASISCSSSQSLIYSDGNAYLHWYLQKPGQSPQLLIYKVSNRFSGVPDRFSGSGSGTDFTLKISRVEAEDVGVYYCTQSTHSPWTFGGGTKVEIK
notes: Fab without PEG; CH1 and CL are not; The light chain is human kappa, since it is captured or detected with anti-human kappa; also called humanized 1A1-Fab; 1A1 N56C Fab
